# Experiments:
# [1] = target: Recombinant human pro-MSP 689R (C672A, His tag), uncleaved single chain
# [2] = target: Recombinant human pro-MSP 689C (C672A, R689C, His tag), uncleaved single chain
# Recombinant human pro-MSP 689C (C672A, R689C, His tag), uncleaved single chain, sequence (chain, as listed by the source C672A R689C): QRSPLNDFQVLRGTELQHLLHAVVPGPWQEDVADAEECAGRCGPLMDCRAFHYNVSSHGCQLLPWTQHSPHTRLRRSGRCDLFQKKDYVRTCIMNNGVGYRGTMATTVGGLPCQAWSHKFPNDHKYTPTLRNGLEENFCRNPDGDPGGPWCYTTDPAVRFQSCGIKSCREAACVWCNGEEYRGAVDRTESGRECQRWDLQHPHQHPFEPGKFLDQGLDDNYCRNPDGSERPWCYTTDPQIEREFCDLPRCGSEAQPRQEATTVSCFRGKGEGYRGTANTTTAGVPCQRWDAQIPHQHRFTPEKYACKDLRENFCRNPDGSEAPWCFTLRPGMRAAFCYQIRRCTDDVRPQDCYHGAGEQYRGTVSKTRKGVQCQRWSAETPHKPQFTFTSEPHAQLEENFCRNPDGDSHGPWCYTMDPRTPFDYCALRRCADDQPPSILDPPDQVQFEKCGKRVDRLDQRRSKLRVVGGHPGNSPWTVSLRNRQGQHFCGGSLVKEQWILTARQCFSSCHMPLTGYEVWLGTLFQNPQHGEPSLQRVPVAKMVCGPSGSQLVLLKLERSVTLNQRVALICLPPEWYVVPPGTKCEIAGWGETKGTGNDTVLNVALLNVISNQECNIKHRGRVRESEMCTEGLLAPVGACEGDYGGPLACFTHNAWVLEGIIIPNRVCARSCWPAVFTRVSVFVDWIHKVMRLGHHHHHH
# Recombinant human pro-MSP 689R (C672A, His tag), uncleaved single chain, sequence (chain, as listed by the source C672A): as the sequence (chain, as listed by the source C672A R689C) above, with C671R counted along it
protein,measurement,setting,value
sHepsin (extracellular domain of human recombinant hepsin with C-terminal His-tag) (protein) RSDQEPLYPVQVSSADARLMVFDKTEGTWRLLCSSRSNARVAGLSCEEMGFLRALTHSELDVRTAGANGTSGFFCVDEGRLPHTQRLLEVISVCDCPRGRFLAAICQDCGRRKLPVDDDDKIVGGRDTSLGRWPWQVSLRYDGAHLCGGSLLSGDWVLTAAHCFPERNRVLSRWRVFAGAVAQASPHGLQLGVQAVVYHGGYLPFRDPNSEENSNDIALVHLSSPLPLTEYIQPVCLPAAGQALVDGKICTVTGWGNTQYYGQQAGVLQEARVPIISNDVCNGADFYGNQIKPKMFCAGYPEGGIDACQGDSGGPFVCEDSISRTPRWRLCGIVSWGTGCALAQKPGVYTKVSDFREWIFQAIKTHSEASGMVTQLHHHHHHHH,"proteolytic cleavage of pro-MSP by hepsin, SDS-PAGE under reducing conditions, 1 h at 37 C",[1],No obvious difference was observed in the concentration of hepsin required to completely cleave these variants over a 1-hour period
same,"proteolytic cleavage of pro-MSP by hepsin, SDS-PAGE under reducing conditions, 1 h at 37 C",[2],No obvious difference was observed in the concentration of hepsin required to completely cleave these variants over a 1-hour period

# — patent US20160032013
